# Measured values reported in PMC11336063.
# Target: N-terminal domain of eIF2α (eIF2α-NTD), amino acids 2–187 (UniProt P05198)
# UniProt P05198, sequence (P05198 2-187): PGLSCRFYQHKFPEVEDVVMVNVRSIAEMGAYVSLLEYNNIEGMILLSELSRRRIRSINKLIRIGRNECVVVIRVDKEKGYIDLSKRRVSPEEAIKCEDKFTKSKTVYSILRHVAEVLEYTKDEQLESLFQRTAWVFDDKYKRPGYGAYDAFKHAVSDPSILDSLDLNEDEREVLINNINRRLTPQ
row,Substance,"eIF2α-S51 phosphorylation of eIF2α-NTD (1 μM) by immunopurified GCN2 variant in the in vitro kinase assay, percent [%]"
1,"human GCN2 P1115L variant, 3xFLAG tagged (from UniProt Q9P2K8 1-1649) (enzyme)",12.9
2,"human GCN2 G1109R variant, 3xFLAG tagged (from UniProt Q9P2K8 1-1649) (enzyme)",27.2
